Measured values from patent publication US20210213134A1, “THIOL-BASED MULTIVALENT DRUG DELIVERY COMPOSITIONS” (ORPRO THERAPEUTICS, INC., priority 2018, published 2021).
“Also recorded” adds a separate entry of the source.

Experiments:
[1] = target: T1, insulin disulfides (heterodimeric insulin) (Homo sapiens, UniProt P01308); assay: single-turnover insulin protein disulfide reduction assay (RP-HPLC of insulin heterodimer peak); type: biochemical; set-up: % reduction: concentration or dose not given beside the values; settings: for % reduction / insulin heterodimer peak (RP-HPLC): pH 8
T1 construct: fully disulfide-bonded heterodimeric insulin
T1 sequence (P01308 25-54 limits assumed): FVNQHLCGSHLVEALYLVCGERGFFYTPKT
T1 sequence (P01308 90-110 limits assumed): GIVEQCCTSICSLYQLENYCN
Procedure: Left side of FIG. 1—polyacrylamide gel electrophoresis of native human thioredoxin-1 (TRX). Lane 1: Molecular weight standards; Lane 2: Oxidized TRX; Lane 3: Oxidized TRX following reaction with dithiothreitol (DTT); Lane 4: Oxidized TRX following reaction with reduced glutathione (GSH); Lane 5: Oxidized TRX following reaction with GSH followed by DTT. Right side of FIG. 1—TRX was oxidized by exposure to ambient air for one week then incubated with either DTT or GSH at pH 8 for 1 hour followed by purification over a size exclusion column to remove unreacted free DTT or GSH after which the TRX was collected and used in a single-turnover insulin protein-disulfide reduction assay. Oxidized TRX (bottom line), TRX reduced with DTT (top line) or TRX reduced with GSH (middle line) were incubated with fully disulfide-bonded heterodimeric insulin at pH 8. After 30 min, 60 min and 120 minutes aliquots were taken and diluted with 0.1% TFA and 17 uM (final) iodoacetic acid and analyzed over RP-HPLC. Absorbance was monitored at 214 nm and the peak area of the insulin heterodimer fraction was determined at each time point to quantify TRX protein disulfide-reducing activity.
C35STRX was oxidized and Lys residues were conjugated to an azido-PEG linker. The conjugated material was then reduced and tested for molecular weight using SDS-PAGE (FIG. 5D) and MALDI-TOF (FIG. 5E) and activity assessed using a single-turnover insulin protein disulfide reduction assay. From the gel and MALDI-TOF results there is no free C35STRX; however, the conjugated material retained about 33% of its activity in the insulin assay as compared to unreacted reduced C35STRX. See FIGS. 5A-5E and their descriptions above.
Insulin Activity Assay with C35STRX and Azido-C35STRX: C35STRX OD280 was 11.8, corresponding to a concentration of 1.69 mM. C35STRX a OD280 was 15, corresponding to a concentration of 2.14 mM. Azido-C35STRX OD280 was 4.0, corresponding to a concentration of 0.57 mM. pH 8 Insulin stock: […] of Tris pH8 and 572 µL H2O and 25 µL of insulin (10 mg/mL) and 10 µL of 0.5 M EDTA. C35STRX stock was 0.5 mM. Azido-C35STRX stock was 0.5 mM concentration.
The reaction was stopped by addition of 10 µL of 1 M iodoacetic acid and 400 µL of 0.1% TFA. Samples were analyzed by RP-HPLC for changes in the insulin heterodimer peak.

[2] = DTNB assay (percent reduction state, free sulfhydryl); type: physicochemical; settings: Table 1
Procedure: C35STRX-antibiotic conjugates are dissolved in PBS to the original volume before lyophilization and assayed for stability over seven days in comparison to non-conjugated reduced C35STRX. C35STRX-antibiotic conjugate concentration is measured by BCA protein assay (Pierce). […] Degradation/aggregation of C35STRX-antibiotic conjugates is determined by the percentage of C35STRX-antibiotic conjugate monomers assayed by SEC using an Agilent 1100 HPLC system and a BioBasic SEC-300 250×4.6 column (ThermoScientific) with a 40 mM Na acetate, 450 mM Na chloride 2 mM EDTA (pH 5.5) buffer at a flow rate 0.350 mL/min and detection by absorbance at 280 nm (A280).
Codon-optimized synthetic oligonucleotides encoding Lys to Ala mutants of C35STRX cloned into vector pD861 (Atum, Newark, Calif.) are expressed solubly in BL21 ΔrhaB E. coli under rhamnose induction (0.1% w/v, 26 deg C.) in APF-LB medium with 0.05% w/v glucose substrate at an O.D.600 of 0.8 in 2.8 L Fernbach shake flasks at NRC (Montreal Canada). Following cell pellet lysis (EmulsiFlex-C3, Avestin, Ottawa Canada) protein is purified from clarified extracts using anion exchange chromatography (FPLC, Akta) and 5 kDa ultrafiltration/diafiltration (UF/DF). […] Physical characterization: C35S(KA)TRX concentration is measured by BCA Protein assay (Pierce).

[3] = test system: extracellular airway mucus; assay: immunohistochemical detection of thioredoxin after IT delivery to rat airways; type: in vivo; settings: intratracheal (IT) delivery, IHC
Source text: FIG. 4 Immunohistochemical detection of thioredoxin following IT delivery to rat airways via Penn-Century micro-sprayer. […] Animals were sacrificed 4 hr post-dose and excised lungs fixed, sectioned and analyzed by IHC for immunodetection of thioredoxin.
Conversion of the thioredoxin active site to a monothiol allows thioredoxin homologue protein to remain covalently attached to targeted disulfides once it has reacted. […] Reduced thioredoxin homologue protein can remain bound to extracellular airway mucus for at least 4 hours following intratracheal (IT) delivery to normal rats with normal mucus as visualized by immunohistochemical detection (brown staining; FIG. 4, Top) using anti-human thioredoxin antisera. […] While time points later than 4 hours were not included in this study, normalization of mucociliary transport in human airway mucus on epithelia for up to 24 hours is observed confirming similar residence time/mucin binding duration for mucoadhesive conjugates.
Conversion of the thioredoxin active site to a reduced Cys32 monothiol allows thioredoxin variants to remain covalently attached to targeted disulfides once reacted. […]

rat = settings: in vivo
target proteins = assay: disulfide linkage to target proteins in vitro by HPLC and gel-shift; type: binding
[4] = test system: human airway mucus on epithelia; assay: normalization of mucociliary transport in human airway mucus on epithelia; type: cell-based
rats = assay: acute aerosol toxicity (nebulizer); type: in vivo
[5] = test system: human primary bronchial epithelia from CF and normal donors; type: cell-based
mice = settings: mouse, in vivo
[6] = literature values; cited from earlier work
porcine gastric mucin = assay: mucin binding direct ELISA; settings: reduced biotinylated conjugate, various mucin concentrations
Procedure: To establish the feasibility of covalently binding conjugated monocysteinic active site Cys32-Ser35 thioredoxin (C35STRX) to mucins, conjugation of C35STRX via its N-terminal NH2 to a model payload (biotin) using EZ-Link™ Sulfo-NHS-SS-Biotin (ThermoFisher) was carried out. Dithiothreitol (DTT, 0.1 M) was used to generate active C35STRX conjugates by reduction of the C35STRX active site Cys. Following DTT removal (NAPS column, GE Healthcare), the mucin binding ability of reduced biotinylated 0.02 C35STRX was evaluated by direct ELISA using 96 well plates 0 (Costar 3370) coated with 100 μl of various concentrations of porcine gastric mucin (Sigma) in 100 mM Tris-HCl buffer (pH 9). 100 μL of biotinylated C35STRX in 50 mM Tris (pH 8) and 1 mM EDTA was then added and incubated for 2 hours, with washes performed between each step. 50 μL of avidin-horseradish peroxidase (HRP) was added and incubated for 30 min followed by 50 μL of tetramethylbenzidine (TMB) substrate. Reactions were stopped after 5 min with 100 μl 1N sulfuric acid. Absorbance at […] (Molecular Devices SpectraMax i3) was plotted against mucin concentration.

Molecule | % reduction ([1]; Table 3, 0 min) [%] | insulin heterodimer peak (RP-HPLC) ([1]; Table 3, 0 min) | % reduction ([1]; Table 3, 90 min) [%] | insulin heterodimer peak (RP-HPLC) ([1]; Table 3, 90 min) | % reduction ([1]; Table 4, 0 min) [%] | insulin heterodimer peak (RP-HPLC) ([1]; Table 4, 0 min) | % reduction ([1]; Table 4, 90 min) [%] | insulin heterodimer peak (RP-HPLC) ([1]; Table 4, 90 min) | % reduced [2] [%] | further results
Azido-C35STRX (conjugate, UniProt P10599 2-105, looked up, variant C35S, azido group) Thioredoxin: VKQIESKTAFQEALDAAGDKLVVVDFSATWCGPSKMIKPFFHSLSEKYSNVIFLEVDVDDCQDVASECEVKCMPTFQFFKKGQKVGEFSGANKEKLEATINELV | 0 | 8959.8 | 32.69 | 6030.6 | 0 | 10213 | 33.07 | 6835 | 106.6 | activity retained in the insulin assay as compared to unreacted reduced C35STRX ([1]; up to 11 azido-PEG linkers on Lys): about 33%
C35STRX: monocysteinic active site Cys32-Ser35 variant of human thioredoxin-1, mucus-targeting scaffold (protein) MVKQIESKTAFQEALDAAGDKLVVVDFSATWCGPSKMIKPFFHSLSEKYSNVIFLEVDVDDCQDVASECEVKCMPTFQFFKKGQKVGEFSGANKEKLEATINELV | 0 | 8515.4 | 99.40 | 50.2 | 0 | 10602 | 97.70 | 243.2 | 109.4 | time remaining bound to extracellular airway mucus ([3]; normal rats): at least 4 hours; adverse inflammatory effects in lavage fluid (rat): No adverse inflammatory effects; disulfide linkage to target proteins (target proteins): stable disulfide linkages to target proteins; duration of normalization of mucociliary transport [4]: up to 24 hours; toxic effects in normal animals treated by aerosol (rats; normal animals, aerosol, high dose levels): lack of observed toxic effects; local or systemic toxicity, histopathology (rats; rats dosed acutely, aerosol via nebulizer, highest delivered concentration 40 mg/kg): No local or systemic toxicity or histopathological anomalies; adverse inflammatory effects in vitro [5]: No adverse inflammatory effects; adverse inflammatory effects in lavage fluid (mice): No adverse inflammatory effects
TRX: endogenously secreted human epithelial protein thioredoxin-1, small (12 kDa) redox enzyme (protein) MVKQIESKTAFQEALDAAGDKLVVVDFSATWCGPCKMIKPFFHSLSEKYSNVIFLEVDVDDCQDVASECEVKCMPTFQFFKKGQKVGEFSGANKEKLEATINELV |  |  |  |  |  |  |  |  |  | pKa of catalytic Cys thiol [6]: 6.2
Oxidized (inactive) C35STRX: oxidized, inactive form of C35STRX used as control (protein) MVKQIESKTAFQEALDAAGDKLVVVDFSATWCGPSKMIKPFFHSLSEKYSNVIFLEVDVDDCQDVASECEVKCMPTFQFFKKGQKVGEFSGANKEKLEATINELV |  |  |  |  |  |  |  |  |  | binding to mucus or the epithelial surface ([3]; rats, 4 hr post-dose): did not bind mucus or the epithelial surface
biotinylated C35STRX (conjugate) MVKQIESKTAFQEALDAAGDKLVVVDFSATWCGPSKMIKPFFHSLSEKYSNVIFLEVDVDDCQDVASECEVKCMPTFQFFKKGQKVGEFSGANKEKLEATINELV |  |  |  |  |  |  |  |  |  | mucin binding (porcine gastric mucin): bind mucin in a dose-dependent fashion; also recorded: maintained full mucin binding activity with linear kinetics
